B1: GST–Tks5-PX [not stated] / FLAG–Rab40b [not stated] (parent complex)
chain 1: YCVQDATVVDVEKRRNPSKHYVYIINVTWSDSTSQTIYRRYSKFFDLQMQLLDKFPIEGGQKDPKQRIIPFLPGKILFRRSHIRDVAVKRLKPIDEYCRALVRLPPHISQCDEVFRFFEARPEDV
chain 2: MSALGSPVRAYDFLLKFLLVGDSDVGKGEILASLQDGAAESPYGHPAGIDYKTTTILLDGRRVKLQLWDTSGQGRFCTIFRSYSRGAQGVILVYDIANRWSFDGIDRWIKEIDEHAPGVPKILVGNRLHLAFKRQVPTEQAQAYAERLGVTFFEVSPLCNFNITESFTELARIVLLRHGMDRLWRPSKVLSLQDLCCRAVVSCTPVHLVDKLPLPIALRSHLKSFSMANGLNARMMHGGSYSLTTSSTHKRSSLRKVKLVRPPQSPPKNCTRNSCKIS

Variants of: B1
Assay: glutathione bead pulldown, quantified immunoblot; three independent experiments; parent: 1; read off a plot
Variant chain 1 Y21A has a response of roughly 0.57 Arbitrary Units.
chain 1 I24A showed a response of roughly 0.86 Arbitrary Units.

Source: PMC5201011 (2016)
